Publication PMC7810871

Target: EsxE-EsxF heterodimer (Mycobacterium tuberculosis) (UniProt P9WNH8)
Test: negative-stain electron microscopy

Substance: EsxE-EsxF heterodimer (from UniProt P9WNH8 1-90; P9WNH6 1-103) (complex)
- stoichiometry N: 5
